{"source": "paper PMC3895837", "molecular_target": "T1, Siglec-5 (Sialic acid-binding Ig-like lectin 5) (human (NB4 AML cell line)) (UniProt O15389)", "T1 sequence": "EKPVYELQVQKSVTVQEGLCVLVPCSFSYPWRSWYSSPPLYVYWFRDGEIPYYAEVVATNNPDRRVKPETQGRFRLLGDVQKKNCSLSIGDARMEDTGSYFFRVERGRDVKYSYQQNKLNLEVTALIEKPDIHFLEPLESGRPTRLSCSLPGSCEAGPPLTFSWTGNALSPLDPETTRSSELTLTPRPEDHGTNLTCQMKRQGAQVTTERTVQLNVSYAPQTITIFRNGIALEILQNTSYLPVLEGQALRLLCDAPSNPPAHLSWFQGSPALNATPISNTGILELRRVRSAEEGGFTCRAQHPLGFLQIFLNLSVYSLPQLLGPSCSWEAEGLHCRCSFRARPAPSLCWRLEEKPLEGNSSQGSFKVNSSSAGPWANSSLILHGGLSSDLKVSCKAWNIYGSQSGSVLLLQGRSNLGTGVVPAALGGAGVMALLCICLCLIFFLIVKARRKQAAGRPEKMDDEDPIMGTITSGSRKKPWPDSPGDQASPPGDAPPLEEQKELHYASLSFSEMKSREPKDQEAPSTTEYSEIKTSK", "assay": "flow cytometry on NB4 cells", "details": "PBS with 4.5 g/L glucose, 5 mM MgCl2, 0.1 mg/ml yeast tRNA, 1 mg/ml BSA (0.1% NaN3 for flow cytometry), on ice 30 min; pH not stated; JH6 and JH19 (whole-cell …)", "data": [{"sequence": "GACGCTTACTCAGGTGTGACTCGAAGGGGTTGGGTGGGTTTATACAAATTAATTAATATTGTATGGTATATTTCGAAGGACGCAGATGAAGTCTC [K19]", "values": [{"measurement": "Kd", "value": 12.4, "unit": "nM"}]}]}
